{
  "source": "patent US20060099689",
  "key": {"H-GST-T-mLIF": {"biological_target": "H-GST-T-mLIF (UniProt P09056)"}, "H-GST-DEVD/S-mLIF": {"biological_target": "H-GST-DEVD/S-mLIF (UniProt P09056)"}, "H-GST-DEVD/mLIF": {"biological_target": "H-GST-DEVD/mLIF (UniProt P09056)"}, "TRX-EK-mIL15": {"biological_target": "T1, TRX-EK-mIL15 (UniProt P48346)", "T1 sequence": "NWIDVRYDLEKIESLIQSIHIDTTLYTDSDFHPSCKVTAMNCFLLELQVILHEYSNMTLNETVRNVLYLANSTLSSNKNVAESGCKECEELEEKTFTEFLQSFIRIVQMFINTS"}, "[1]": {"tested_on": "TRX-EK-hIFNa [thioredoxin: P0AA25]", "sequence (P0AA25 whole entry, looked up)": "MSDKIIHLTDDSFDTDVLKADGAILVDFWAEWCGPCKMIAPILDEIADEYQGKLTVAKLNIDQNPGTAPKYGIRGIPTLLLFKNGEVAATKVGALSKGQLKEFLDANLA"}},
  "data": [
    {"substance": "Thrombin", "values": [
      {"measurement": "time needed for processing", "setting": "H-GST-T-mLIF", "result": "up to 16 h were needed to process the H-GST-T-mLIF fusion protein with Thrombin"}
    ]},
    {"substance": "reverse Caspase-7", "values": [
      {"measurement": "cleavage of the fusion protein (gel, FIG. 7)", "setting": "H-GST-DEVD/S-mLIF", "result": "Both mLIF and hIFN alpha were cut efficiently using Either Caspase-3 or reverse Caspase-7, with either the recognition site DEVD/ or DEVD/S"},
      {"measurement": "cleavage of the fusion protein (gel, FIG. 7)", "setting": "GST-C-hIFNα", "result": "Both mLIF and hIFN alpha were cut efficiently using Either Caspase-3 or reverse Caspase-7, with either the recognition site DEVD/ or DEVD/S"},
      {"measurement": "cleavage of the fusion protein (gel, FIG. 7)", "setting": "H-GST-DEVD/mLIF", "result": "Both mLIF and hIFN alpha were cut efficiently using Either Caspase-3 or reverse Caspase-7, with either the recognition site DEVD/ or DEVD/S"}
    ]},
    {"substance": "Enterokinase", "values": [
      {"measurement": "cleavage of the fusion protein (gel, FIG. 3a)", "setting": "TRX-EK-mIL15", "result": "Cleavage with enterokinase required a long incubation time in order to process the molecule. In the end, the molecule was processed"},
      {"measurement": "processing of the fusion protein (gel, FIG. 3b)", "setting": "[1]", "result": "16 h incubation with Enterokinase resulted in only a minor amount of processing of the fusion protein"}
    ]}
  ]
}
